Measured values: US20240002497A1 (Merck Sharp & Dohme, published 2024)
Numbering of substitutions follows the chain as printed. Names may count otherwise.

Assays:
huNav1.7α (HEKa) = biological target: T1, huNav1.7α (HEKa) (human, UniProt Q15858 1-1988); experiment: binding FACS, HEKa cells
T1 construct: also called HEKa huNav1.7α
Method: Binding of the ISVDs to cell-expressed Nav1.7α was detected via murine anti-Flag (Sigma, catalog #F1804). Briefly, cells were resuspended in FACS buffer (PBS, 10% FBS, NaN₃) and transferred to a 96-well V-bottom plate at 1×10^5 cells/well. Purified FLAG3-tagged ISVD was diluted in FACS buffer and added to the cells for 30 minutes at 4° C. […] Prior to the read-out, the samples were resuspended in 1 μg/mL propidium iodide (Sigma, catalog #P4170) to exclude dead cells. Between each step, the cells were centrifuged for 5 minutes at 200 grams and washed with 100 μL/well FACS buffer.

huNav1.7α + β1 (HEKa/β1) = biological target: T2, huNav1.7α + β1 (HEKa/β1) (human, UniProt Q15858 1-1988; Q07699 19-218); experiment: binding FACS, HEKa/β1 cells
T2 construct: also called HEKa/β1 huNav1.7α
Procedure, shortened: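 Cells are first suspended in FACS buffer at 1×10^5 per well. Next, FLAG3-tagged ISVD is added for 30 minutes at 4° C, and binding is then detected with murine anti-Flag. Finally, samples go into 1 μg/mL propidium iodide before flow cytometry.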

[1] = biological target: T3, huNav157 chimera 14 + β1-β2-β3 (human); experiment: binding FACS, HEK FlpIn cells
T3 construct: Chimera of huNav1.7α (extracellular loops and transmembrane helices) and huNav1.5α (intracellular loops); also called Nav157ch14-β1-β2-β3; huNav157 chimera 14-beta1-beta2-beta3

huNav157 chimera 14 = biological target: T4, huNav157 chimera 14 (human); experiment: binding FACS, HEK FlpIn cells
T4 construct: Chimera without β subunits; also called Nav157ch14

[2] = biological target: T5, huNav1.7α (human Nav1.7 alpha subunit, expressed without β subunits) (human, UniProt Q15858 1-1988); experiment: binding FACS, HEKa cells
T5 construct: also called HEK293 human Nav1.7α; HEKa Nav1.7α

[3] = biological target: T6, huNav1.7α + β1 (human Nav1.7α co-expressed with Navβ1) (human, UniProt Q15858 1-1988; Q07699 19-218); experiment: binding FACS, HEKa/β1 cells
T6 construct: also called HEK293 human Nav1.7α + β1; HEKa/β1 Nav1.7α

B1: F010301657 (VHH)
VHH: EVQLVESGGGLVQPGGSLRLSCAASVRPFSTSAMGWFRQAPEKEREAVAGILWNGIVTYYADSVKGRFTISRDNAKNEVYLQMNKLKPEDTAVYYCALDRAYQGRSFSAKEYEYWGQGTLVTVSS
EC50 (huNav1.7α (HEKa)): 20 nM
EC50 (huNav1.7α + β1 (HEKa/β1)): 16 nM

B2: F010301662 (VHH)
VHH: B1 VHH with K110Y
EC50 (huNav1.7α (HEKa)): 19 nM
EC50 (huNav1.7α + β1 (HEKa/β1)): 17 nM

B3: F010301665 (VHH)
VHH: B1 VHH with G50A, Q103G, S124A, S125A
EC50 (huNav1.7α (HEKa)): 8.8 nM
EC50 (huNav1.7α + β1 (HEKa/β1)): 11 nM

B4: F010301659 (VHH)
VHH: B1 VHH with G50A, Q103G, K110Y
EC50 (huNav1.7α (HEKa)): 11 nM
EC50 (huNav1.7α + β1 (HEKa/β1)): 12 nM

B5: F010301666 (VHH)
VHH: B1 VHH with G50A, A101D
EC50 (huNav1.7α (HEKa)): 10 nM
EC50 (huNav1.7α + β1 (HEKa/β1)): 14 nM

B6: F010301658 (VHH)
VHH: B1 VHH with G50A
EC50 (huNav1.7α (HEKa)): 23 nM
EC50 (huNav1.7α + β1 (HEKa/β1)): 20 nM

B7: F010301661 (VHH)
VHH: B1 VHH with G50A, A101D, Q103G
EC50 (huNav1.7α (HEKa)): 16 nM
EC50 (huNav1.7α + β1 (HEKa/β1)): 18 nM

B8: F010301664 (VHH)
VHH: B1 VHH with A101D
EC50 (huNav1.7α (HEKa)): 13 nM
EC50 (huNav1.7α + β1 (HEKa/β1)): 18 nM

B9: F010301663 (VHH)
VHH: B1 VHH with Q103G
EC50 (huNav1.7α (HEKa)): 13 nM
EC50 (huNav1.7α + β1 (HEKa/β1)): 14 nM

B10: F010301643 (VHH)
VHH: EVQLVESGGGVVQPGGSLRLSCAASGRILRIGYMRWHRQGAGKQREFVARITDDSATDYADSVKGRFTISRDNAKNTVYLQMNSLRPEDTALYYCEALVTASVRGGSIHSGTYWGQGTLVTVSS
notes: also called F0103387G05(L11V, A14P, D23A, N82bS, N83R, V89L, R105Q)
EC50 [1]: 3.6 nM
Bmax (huNav157 chimera 14): 100%
EC50 (huNav157 chimera 14): 3.7 nM
Bmax [2]: 100%
EC50 [2]: 4.1 nM
EC50 [3]: 3.4 nM

B11: F010301645 (VHH)
VHH: B10 VHH with A23D, G40A
notes: also called F0103387G05(L11V, A14P, G40A, N82bS, N83R, V89L, R105Q)
EC50 [1]: 4.6 nM
Bmax (huNav157 chimera 14): 100%
EC50 (huNav157 chimera 14): 3.9 nM
Bmax [2]: 100%
EC50 [2]: 4.7 nM
EC50 [3]: 4.2 nM

B12: F010301646 (VHH)
VHH: B10 VHH with A23D, A41P
notes: also called F0103387G05(L11V, A14P, A41P, N82bS, N83R, V89L, R105Q)
EC50 [1]: 4.2 nM
Bmax (huNav157 chimera 14): 100%
EC50 (huNav157 chimera 14): 3.1 nM
Bmax [2]: 100%
EC50 [2]: 4.4 nM
EC50 [3]: 4.1 nM

B13: F010301644 (VHH)
VHH: B10 VHH with A23D, H37Y
notes: also called F0103387G05(L11V, A14P, H37Y, N82bS, N83R, V89L, R105Q)
EC50 [1]: 4.9 nM
Bmax (huNav157 chimera 14): 100%
EC50 (huNav157 chimera 14): 4.4 nM
Bmax [2]: 100%
EC50 [2]: 5.7 nM
EC50 [3]: 5 nM

B14: F010301649 (VHH)
VHH: B10 VHH with A23D
notes: also called F0103387G05(L11V, A14P, N82bS, N83R, V89L, R105Q)
EC50 [1]: 4.2 nM
Bmax (huNav157 chimera 14): 100%
EC50 (huNav157 chimera 14): 3.4 nM
Bmax [2]: 100%
EC50 [2]: 5.3 nM
EC50 [3]: 4.1 nM
